We go through eight molecules from patent US20240093255A1, “BIOSYNTHETIC PRODUCTION OF 2-FUCOSYLLACTOSE” (Conagen Inc., priority 2020, published 2024).

Holding throughout (assay type): biochemical
Data set [1] can be described thus: GDP-mannose-3,5-epimerase candidate screening (GDP-D-mannose to GDP-L-galactose). To be noted: enzymatic screening of candidates. On the procedure: The reaction conditions were: 2 mM GDP-D-mannose, 1 mM NAD^+, 50 mM Tris-HCl, pH 8.0 and with or without 0.33 mg/mL At GME. The reactions were incubated at room temperature for 16 hours, quenched by heating at 99° C. for 10 mins, and analyzed using HPLC.

Data set [2] is described as follows: FutC candidate activity in vitro using the de novo synthesis pathway (2′-FL by HPLC). To be noted: 0.2 mg/mL fucosyltransferase, 1 mM GDP-mannose, 80 mM lactose, room temperature, 16 hours. Here is the method:
The final step in the novel path to 2′-FL requires an α-1,2-fucosyltransferase. Various FutC candidates were screened for soluble expression in E. coli and fucosyltransferase activity. The candidate enzymes show different solubilities and enzymatic activity for 2′-FL synthesis. For the candidates that have highly soluble expression, their activity was tested in vitro using the de novo synthesis pathway. The reaction conditions were: 50 mM Tris-HCl pH 8.0, 2 mM NADPH, 0.1 mM NADP^+, 1 mM GDP-mannose, 80 mM lactose, 0.9 mg/mL Ec Gmd (SEQ 11), 0.2 mg/mL Ec WcaG (SEQ ID NO: 7) and 0.2 mg/mL of the fucosyltransferase candidates. The reactions were incubated at room temperature for 16 hours. The reactions were quenched by heating at 99° C. for 10 minutes, and then analyzed by HPLC.

Data set [3] can be described thus: GDP-L-fucose inhibition assay of GMD enzymes (GDP-4-keto-6-deoxymannose detection). To be noted: 350 μM GDP-L-fucose; 1 mM GDP-mannose, 0.5 mg/mL GMD. Here is the method:
To test for inhibition, the mutants were expressed and purified as described in Example 7, and assayed at a range of GDP-L-fucose concentrations. The assay conditions were as follows: 50 mM Tris pH 7.5, 1 mM GDP-mannose, 0.5 mM NADP^+, 0.5 mg/mL dehydratase (GMD) enzyme, and 0 μM, 70 μM or 350 μM GDP-L-fucose. The reactions were quenched at 99° C. for 10 minutes, and the enzymes' respective activities were analyzed using the nucleotide sugar LC-MS method by GDP-4-keto-6-deoxymannose detection.

The nature of data set [4]: Dehydratase screening for GDP-L-fucose synthesis from GDP-L-galactose. On the procedure: Four enzymes were screened: At Gmd (SEQ ID NO: 5), Hs Gmd (SEQ ID NO: 9), Ec Gmd (SEQ ID NO: 11) and Yp DmhA (SEQ ID NO: 13), while Ec WcaG (SEQ ID NO: 7) is known to be a reductase. […] The reactions were incubated for 16 hours at 37° C., and then quenched by heating at 99° C. for 10 minutes. Samples were analyzed by both HPLC and LC-MS methods.

The nature of data set [5]: FKP activity towards L-galactose (GDP-L-galactose production). On the procedure: FKP naturally catalyzes the conversion of L-fucose into GDP-L-fucose. It has been reported that FKP also could generate GDP-L-galactose from L-galactose (Ohashi et al. 2017). FKP was cloned into pET21, expressed and purified as described in Example 1. The activity of FKP towards L-galactose was assayed under the following conditions: 2 mM L-galactose, 2 mM ATP, 2 mM GTP, 4 mM MgCl2, 50 mM Tris-HCl, pH 7.5 and with or without 0.25 g/L FKP. The samples were incubated at room temperature overnight, and quenched by heating at 99° C. for 10 minutes, and analyzed using LC-MS.
Further work was conducted to optimize the FKP reaction with L-galactose as the substrate, by varying reaction temperature, substrate concentrations, and adding an ATP/GTP regeneration system. The reaction conditions were: 50 mM Tris-HCl pH 7.5, 5 mM MgCl2, 5 mM L-galactose, 2 mM ATP, 2 mM GTP, 10 mM PEP, 1 U pyruvate kinase, and with or without 0.8 mg/mL FKP. The reaction was incubated at 37° C. for 44 hours. The reaction was quenched by heating at 99° C. for 10 minutes. The samples were analyzed using HPLC (FIG. 5).

“At GME: GDP-mannose-3,5-epimerase from Arabidopsis thaliana, SEQ ID NO: 3”: in data set [1], the “GDP-mannose-3,5-epimerase activity” value was “higher activity than Os GME”.

B1: FutC13: α-1,2-fucosyltransferase candidate from Candidatus Brocadia sapporoensis, SEQ ID NO: 45 (protein)
chain: MQLKRWPQLKPTDAAVFGSGKQTIMIIVKLMGGLGNQMFQYAAGRRLAEKLGVKLKLDIEMFKDNTLRKYELGAFNIQECFAAVEEIERLTVVKRGIVEKALDRVFKRPIRRPGGYVAEKYFVFDPSILQLPDQVYLDGYWQSEKYFAEIETIIREEFTIKYPQTDKNKVLSDSIKSGNSVTVHVRRGDYVNNPETNSLHGVCGIDYYQRCIDFIITKIANPHFFFFSDDPEWVKNNLKIKYESTVVEHNGAEKCYEDLRLLSQGKYHIIANSTFSWWGAWLNKNPEKMVVAPEKWFKKEDVNTKGFIPEDWIRL
modifications: Candidatus Brocadia sapporoensis
For B1, the “α-1,2-fucosyltransferase activity for 2′-FL production” value (“α-1,2-fucosyltransferase activity” for short) in data set [2] is “have α-1,2-fucosyltransferase activity for 2′-FL production”.

B2: FutC2: α-1,2-fucosyltransferase candidate from Pisciglobus halotolerans, SEQ ID NO: 23 (protein)
chain: MIYTRITSGLGNQMFQYAIAYSYSRKYDMPLILDLTNFKISKKRTYQLDKFKLNDYKKITFKNAPLEIKIFWLVEVLNMISIKLRKKEMKRKNNYNLKSTQFICEKYKEKYNINFDLTNKSLYLSGFWQSPLYFENYRDELIQQFSPNYVLSNKLKEYETKIINCRSVSVHIRRGDFLQHGLFKDVDYQKKAITYLEKKLDNPIFFFFSDDIEWTKEKFKNQKNCFFVSSDSKNSGIEEMYLMSKCENNIIANSTFSWWGAWLNQNQNKIVIAPSTGFGNKDILPKSWYTI
modifications: Pisciglobus halotolerans
Consider B2, for which the “α-1,2-fucosyltransferase activity” value in data set [2] was “have α-1,2-fucosyltransferase activity for 2′-FL production”.

B3: FutC 18: α-1,2-fucosyltransferase candidate from Rhizobiales bacterium, SEQ ID NO: 55 (protein, listed as Rhizobiales bacterium)
chain: MIVTRIVGGLGNQMFQYAVGRALSAKTGQEFKLDLSEMDRYKVHALQLDQFNIKGVRAGRHEIPFRPRKSFFGKILTALKNRNRIPQVFETTPSFDPSVLQRKGSCYLSGYWQSEKYFSDCSELIRADFSLKGPMSDERQAVLSQIRDAEAPVSVHVRRGDYVTNTTANSIHGTCEPEWYRQAMRKISDRTGDPTFFVFSDDPMWARSNLPTYEKMVFVEPRADGKDAEDMHLMSSCQSHIIANSTFSWWGAWLNPRQDKRVIAPARWFRAEDRDSTDLVPAQWERL
Consider B3, for which the “α-1,2-fucosyltransferase activity” value in data set [2] is on record as “have α-1,2-fucosyltransferase activity for 2′-FL production”.

B4: At WT: GDP-mannose-4,6-dehydratase from Arabidopsis thaliana, wild type, SEQ ID NO: 5 (protein, listed as Arabidopsis thaliana)
chain: MASENNGSRSDSESITAPKADSTVVEPRKIALITGITGQDGSYLTEFLLGKGYEVHGLIRRSSNFNTQRINHIYIDPHNVNKALMKLHYADLTDASSLRRWIDVIKPDEVYNLAAQSHVAVSFEIPDYTADVVATGALRLLEAVRSHTIDSGRTVKYYQAGSSEMFGSTPPPQSETTPFHPRSPYAASKCAAHWYTVNYREAYGLFACNGILFNHESPRRGENFVTRKITRALGRIKVGLQTKLFLGNLQASRDWGFAGDYVEAMWLMLQQEKPDDYVVATEEGHTVEEFLDVSFGYLGLNWKDYVEIDQRYFRPAEVDNLQGDASKAKEVLGWKPQVGFEKLVKMMVDEDLELAKREKVLVDAGYMDAKQQP
In turn, B4 yielded a decrease in activity in data set [3] of 95%. Moreover, the “dehydratase activity towards GDP-L-galactose” value in data set [4] (5 mM GDP-L-Gal, 2.4 g/L At Gmd, 3.2 g/L Ec WcaG, 16 hours, 37° C.) was “has dehydratase activity towards GDP-L-galactose”. Moreover, the initial dehydratase activity entry in data set [4] (among four potential dehydratases screened) was “highest initial activity”.

B5: FutC5: α-1,2-fucosyltransferase candidate from Lachnospiraceae bacterium XBB2008, SEQ ID NO: 29; parent of ASR12 (protein)
chain: MIILQMSGGLGNQMFQYALYLKLKKLGREVKFDDETSYELDNARPVQLAVFDITYPRATRQEVTDMRDSSPAWKDRIRRKLKGRNLKQYTEANYSYDEHVFELDDTYLRGYFQTEKYFSDIRDEIYKTYTMRKDLITEQTTQYEEDILSHENSVSIHIRRGDYMTIEGGEIYAGICTDEFYDSAIKYVLERHPDAVFYLFTNDSSWAEYFCNIHSDVNIHVVEGNTEYFGYLDMYLMSRCKHHIVANSSFSWWGAWLGRDADGMVIAPDPWFNCSNCADIHTDRMILIDPKGELLTDDKGVRNESEE
modifications: Lachnospiraceae bacterium XBB2008
notes: parent of ASR12
B5: the “α-1,2-fucosyltransferase activity” value in data set [2] was “have α-1,2-fucosyltransferase activity for 2′-FL production”.

B6: FKP: fucokinase/guanylyltransferase from Bacteroides fragilis, SEQ ID NO: 1 (protein, listed as Bacteroides fragilis)
chain: MQKLLSLPPNLVQSFHELERVNRTDWFCTSDPVGKKLGSGGGTSWLLEECYNEYSDGATFGEWLEKEKRILLHAGGQSRRLPGYAPSGKILTPVPVFRWERGQHLGQNLLSLQLPLYEKIMSLAPDKLHTLIASGDVYIRSEKPLQSIPEADVVCYGLWVDPSLATHHGVFASDRKHPEQLDFMLQKPSLAELESLSKTHLFLMDIGIWLLSDRAVEILMKRSHKESSEELKYYDLYSDFGLALGTHPRIEDEEVNTLSVAILPLPGGEFYHYGTSKELISSTLSVQNKVYDQRRIMHRKVKPNPAMFVQNAVVRIPLCAENADLWIENSHIGPKWKIASRHIITGVPENDWSLAVPAGVCVDVVPMGDKGFVARPYGLDDVFKGDLRDSKTTLTGIPFGEWMSKRGLSYTDLKGRTDDLQAASVFPMVNSVEELGLVLRWMLSEPELEEGKNIWLRSERFSADEISAGANLKRLYAQREEFRKGNWQALAVNHEKSVFYQLDLADAAEDFVRLGLDMPELLPEDALQMSRIHNRMLRARILKLDGKDYRPEEQAAFDLLRDGLLDGISNRKSTPKLDVYSDQIVWGRSPVRIDMAGGWTDTPPYSLYSGGNVVNLAIELNGQPPLQVYVKPCKDFHIVLRSIDMGAMEIVSTFDELQDYKKIGSPFSIPKAALSLAGFAPAFSAVSYASLEEQLKDFGAGIEVTLLAAIPAGSGLGTSSILASTVLGAINDFCGLAWDKNEICQRTLVLEQLLTTGGGWQDQYGGVLQGVKLLQTEAGFAQSPLVRWLPDHLFTHPEYKDCHLLYYTGITRTAKGILAEIVSSMFLNSSLHLNLLSEMKAHALDMNEAIQRGSFVEFGRLVGKTWEQNKALDSGTNPPAVEAIIDLIKDYTLGYKLPGAGGGGYLYMVAKDPQAAVRIRKILTENAPNPRARFVEMTLSDKGFQVSRS
B6: the “conversion of L-galactose to GDP-L-galactose” value in data set [5] (2 mM L-galactose, 0.25 g/L FKP, room temperature overnight, LC-MS) is listed as “catalyzes the conversion of L-galactose to GDP-L-galactose”. For the same molecule, the “final titer of GDP-L-galactose” value in data set [5] (5 mM L-galactose, 0.8 mg/mL FKP, PEP/pyruvate kinase regeneration, 37° C., 44 hours) worked out at 2.5 g/L.

B7: FutC10: α-1,2-fucosyltransferase candidate from Thermosynechococcus elongatus, SEQ ID NO: 39 (protein, listed as Thermosynechococcus elongatus)
chain: MIIVRLCGGLGNQMFQYAAGLAAAHRIGSEVKFDTHWFDATCLHQGLELRRVFGLELPEPSSKDLRKVLGACVHPAVRRLLSRRLLRALRPKSLVIQPHFHYWTGFEHLTDNVYLEGYWQSERYFSNIADIIRQQFRFVEPLDPHNAALMDEMQSGVSVSLHIRRGDYFNNPQMRRVHGVDLSEYYPAAVATMIEKTNAERFYVFSDDPQWVLEHLKLPVSYTVVDHNRGAASYRDMQLMSACRHHIIANSTFSWWGAWLNPRPDKVVIAPRHWFNVDVFDTRDLYCPEWIVL
As for B7, the “α-1,2-fucosyltransferase activity” value in data set [2] is recorded as “have α-1,2-fucosyltransferase activity for 2′-FL production”.
